± gives the standard error. Fewer inactive variants are shown than the library holds.
B1: glmS ribozyme (parent)
chain: AUAAAAGCGCCAGAACUACAGAAAUGUAGUUGACGAGGAGGAGGUUUAUCGAAUUUUCGGCGGAUGCCUCCAAA

Tests used:
Details in all cases: with glucosamine-6-phosphate
glucosamine-6-phosphate [1] = variants of: B1; assay: self-cleavage kobs at 640 uM GlcN6P; higher = faster cleavage; RNA array
Summary of the method: (§1)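 In situ transcription by E. coli RNA polymerase produced barcoded ribozyme variants on sequenced MiSeq chips, and a hybridised Cy3 probe tracked them at 37 °C. Glucosamine-6-phosphate was flowed in at 40 μM to 10 mM in HEPES/KCl/Mg(OAc)2 buffer. kcat and KM were taken from weighted Michaelis–Menten fits of kobs values from exponential decay fits.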

glucosamine-6-phosphate [2] = variants of: B1; assay: self-cleavage kobs at 2500 uM GlcN6P; higher = faster cleavage; RNA array
Summary of the method: as §1

glucosamine-6-phosphate [3] = variants of: B1; assay: self-cleavage kobs at 10000 uM GlcN6P; higher = faster cleavage; RNA array
Summary of the method: as §1

Variant | self-cleavage kobs at 640 uM GlcN6P (glucosamine-6-phosphate [1]) [s⁻¹] | self-cleavage kobs at 2500 uM GlcN6P (glucosamine-6-phosphate [2]) [s⁻¹] | self-cleavage kobs at 10000 uM GlcN6P (glucosamine-6-phosphate [3]) [s⁻¹]
A12U U31C C67U | 0.000286 ± 9.1e-05 | – | –
G38C G44U G51C A52C C71U | < 1e-05 | – | –
U17G G63A | < 1e-05 | < 1e-05 | –
A14U A33C U57C | 0.0103 ± 0.004 | – | –
A39U U55C U65G | 0.000491 ± 0.00014 | 0.00164 ± 0.00045 | –
G41C A64C C67A | < 1e-05 | – | –
A12G A15G G35A C68G | < 1e-05 | – | –
C58U C61G C67U | 7.86e-05 ± 3.1e-05 | – | –
G7U G43U C67G | < 1e-05 | – | –
G13U A48C G59U G66U | < 1e-05 | – | –
C8U C34U A42U U65A C67G | 0.000104 ± 4.1e-05 | 5.58e-05 ± 2.1e-05 | –
G29A U30A A42G A53G | 9.25e-05 ± 2.3e-05 | – | –
C8G C10U A14G C34A U69G | 0.000745 ± 0.00024 | < 1e-05 | –
A12G U46G C58G G63U U69A | 0.000158 ± 6.3e-05 | – | –
G7C A15U G43A A48G C67A | < 1e-05 | < 1e-05 | –
G9U C10G C11A | < 1e-05 | – | –
G38A A42U G60U C71G | < 1e-05 | – | –
G13C A14U A42U A64G | < 1e-05 | – | –
G29A U56A A64G | 0.000408 ± 0.00012 | 0.00201 ± 0.00043 | 0.00195 ± 0.00041
A39C A52C C71A | < 1e-05 | < 1e-05 | –
G41U C58G C61U A64U C71U | < 1e-05 | – | –
A33G A39C G44A C71G | < 1e-05 | < 1e-05 | –
G7C A14C G44A G63A | < 1e-05 | < 1e-05 | –

Variant | self-cleavage kobs at 640 uM GlcN6P (glucosamine-6-phosphate [1]) [s⁻¹] | self-cleavage kobs at 2500 uM GlcN6P (glucosamine-6-phosphate [2]) [s⁻¹] | self-cleavage kobs at 10000 uM GlcN6P (glucosamine-6-phosphate [3]) [s⁻¹]
U31C G35C G38U | < 1e-05 | – | –
G38C G41U G44C | < 1e-05 | < 1e-05 | –
G9U C10A A42U G51A U54G G60C | < 1e-05 | – | –
G9U A12C | < 1e-05 | – | < 1e-05
A33G G41C G63U | < 1e-05 | – | < 1e-05
A15G G51U G63U C68G | 9.97e-05 ± 4.5e-05 | 0.000286 ± 0.00011 | –
G7C U45G A53U A64G | < 1e-05 | – | –
G9A G41A A53U | < 1e-05 | < 1e-05 | –
A52C A53C U55C C67G | < 1e-05 | < 1e-05 | –
A6C C8G A48G G60U C68U | < 1e-05 | < 1e-05 | –
A14G C16U U45A G51U C61G | < 1e-05 | – | –
G44A U55A G59U | < 1e-05 | < 1e-05 | –
G9C A14G G37U G62C C71A | < 1e-05 | < 1e-05 | –
C11A G44A C68A | < 1e-05 | < 1e-05 | –
G13C G41U C71U | < 1e-05 | – | –
G35U G38U C67A | < 1e-05 | – | –
G40U G41U U49G C61G | < 1e-05 | < 1e-05 | –
A14U G44U U54A G59C C68U | < 1e-05 | < 1e-05 | –
A6G A15G A42G | 0.000137 ± 4.7e-05 | – | –
A6G C11G G13C C61G | < 1e-05 | < 1e-05 | –
G13C C50A | < 1e-05 | – | < 1e-05
U54G U57A C58G C68A | 0.000592 ± 0.00015 | – | –
G41U A48U A64C | < 1e-05 | < 1e-05 | –

Variant | self-cleavage kobs at 640 uM GlcN6P (glucosamine-6-phosphate [1]) [s⁻¹] | self-cleavage kobs at 2500 uM GlcN6P (glucosamine-6-phosphate [2]) [s⁻¹] | self-cleavage kobs at 10000 uM GlcN6P (glucosamine-6-phosphate [3]) [s⁻¹]
A14U A15G G35U | < 1e-05 | < 1e-05 | –
A6C C8U G38C G51C | < 1e-05 | < 1e-05 | –
U45G U54C C61U | < 1e-05 | < 1e-05 | –
U46G C58A A64U | < 1e-05 | < 1e-05 | –
A15C G38U C58A | < 1e-05 | – | –
C8G A15U U56C | < 1e-05 | < 1e-05 | < 1e-05
A12G A36G G40A U54G | < 1e-05 | – | –
G35C A36U A39G | < 1e-05 | – | –
A33U A48C G63A | < 1e-05 | < 1e-05 | –
A14G G40U C61G | < 1e-05 | < 1e-05 | –
A42C G43U C70U | < 1e-05 | < 1e-05 | –
A33U G44C G51A U56A | < 1e-05 | – | –
A39U C58A A64U | < 1e-05 | < 1e-05 | –
C50G A53U A64G | < 1e-05 | – | –
A14C G40U C67U | < 1e-05 | – | –
G9U U47G | < 1e-05 | – | < 1e-05
C8A G35A G59A C70U | < 1e-05 | < 1e-05 | –
A6U G9A C50U | < 1e-05 | – | –
G40U U46G U47G U55A G63U | < 1e-05 | < 1e-05 | –
G29U A33U G44A | < 1e-05 | < 1e-05 | –
U30G G35A A39U U55C | < 1e-05 | < 1e-05 | –
A6G G38A C50G | 0.00032 ± 7.9e-05 | 0.000113 ± 3.5e-05 | –
A15C U54C G66U C70U | 7.59e-05 ± 1.8e-05 | 0.000351 ± 9.2e-05 | –

Variant | self-cleavage kobs at 640 uM GlcN6P (glucosamine-6-phosphate [1]) [s⁻¹] | self-cleavage kobs at 2500 uM GlcN6P (glucosamine-6-phosphate [2]) [s⁻¹] | self-cleavage kobs at 10000 uM GlcN6P (glucosamine-6-phosphate [3]) [s⁻¹]
A15G G40A G59U C67G | < 1e-05 | < 1e-05 | –
C34G G41C C71U | < 1e-05 | – | –
G41U A52C C71A | < 1e-05 | < 1e-05 | –
G29U A33C G41A U49C G60A U65C | < 1e-05 | – | –
G32U C34A G44A C68A | < 1e-05 | < 1e-05 | –
A14C G37A A39U C68A | < 1e-05 | – | –
A36C A42U G44C A52U | < 1e-05 | – | –
G37A A64G C67G | < 1e-05 | – | –
C16A G62U C71G | < 1e-05 | < 1e-05 | –
G40C U45C A48G | < 1e-05 | < 1e-05 | –
G38U C50A | < 1e-05 | < 1e-05 | –
A14G C16G U30C | 9.39e-05 ± 1.9e-05 | – | –
C8U C11A | < 1e-05 | – | < 1e-05
A6G C8G C11G G13U C50G C61A C71U | 0.00556 ± 0.0017 | 0.000121 ± 5.1e-05 | –
G7C C8A A42U | < 1e-05 | – | –
A6G G29U G62C | < 1e-05 | – | –
A6U U49C U54A A64U C68U | < 1e-05 | – | –
U31G G35C C68G | < 1e-05 | < 1e-05 | –
U47A A48U C58G | < 1e-05 | < 1e-05 | –
G51A G62C G63C | < 1e-05 | – | –
A39G U46C C71U | 0.00179 ± 0.00048 | – | –
C10A U56A C70U | 6.36e-05 ± 2.6e-05 | 0.000147 ± 6.5e-05 | –
A12G A42G C61U G63U | < 1e-05 | – | –

Variant | self-cleavage kobs at 640 uM GlcN6P (glucosamine-6-phosphate [1]) [s⁻¹] | self-cleavage kobs at 2500 uM GlcN6P (glucosamine-6-phosphate [2]) [s⁻¹] | self-cleavage kobs at 10000 uM GlcN6P (glucosamine-6-phosphate [3]) [s⁻¹]
A15C G44C C50U | < 1e-05 | < 1e-05 | –
C16U G43C C71A | < 1e-05 | < 1e-05 | –
A48G A52U G59U | < 1e-05 | < 1e-05 | –
C16U A39G C58A | 9.4e-05 ± 1.7e-05 | 0.000347 ± 4.1e-05 | –
A36U A39G | < 1e-05 | – | –
A15U U31A C34A | < 1e-05 | < 1e-05 | –
G41U U47G G51U | < 1e-05 | < 1e-05 | –
G29A U69A | 7.98e-05 ± 2.2e-05 | 3.9e-05 ± 9.8e-06 | –
G7U G9A C58A C61A C67U | < 1e-05 | < 1e-05 | –
G59C A64G U69G | < 1e-05 | – | –
C58U C67U U69A | 6.03e-05 ± 2.7e-05 | 0.000214 ± 9e-05 | –
G41C C50U G59U | < 1e-05 | – | –
C11U A12G C34A | < 1e-05 | – | –
G13U G62C C70U | < 1e-05 | – | –
A42C U46G U49A | < 1e-05 | – | –
A12C A20C | 0.00491 ± 0.0012 | 0.0118 ± 0.0035 | –
G35C G41A U49A C58G C71U | < 1e-05 | – | –
A15C G37C C70U | < 1e-05 | – | –
G29C U54G C70G | 7.66e-05 ± 3.1e-05 | – | –
U54G U55C U56G G59C U69G | 0.000119 ± 4.3e-05 | 6.83e-05 ± 2.7e-05 | –
G13C U55A U69A | 0.00022 ± 7e-05 | – | –
C16A G60U U69G | < 1e-05 | – | –
C16U C34U G66U C68G | 0.000354 ± 0.0001 | – | –

Variant | self-cleavage kobs at 640 uM GlcN6P (glucosamine-6-phosphate [1]) [s⁻¹] | self-cleavage kobs at 2500 uM GlcN6P (glucosamine-6-phosphate [2]) [s⁻¹] | self-cleavage kobs at 10000 uM GlcN6P (glucosamine-6-phosphate [3]) [s⁻¹]
G13U G29U A52C | < 1e-05 | – | –
C16A G44C U54C | < 1e-05 | – | –
A12U U30C A53C | 0.000316 ± 0.0001 | 0.000389 ± 0.00012 | 0.00132 ± 0.00056
G35U A42U G63C | < 1e-05 | – | –
A15U C16A A52U A53C | < 1e-05 | < 1e-05 | –
C34U G35C C50U C67A | < 1e-05 | < 1e-05 | –
G32A G66U C68G | 0.000111 ± 3.9e-05 | – | –
A15G U49A C58A U69A C70U | 0.00014 ± 3.9e-05 | – | –
A6C U69G | 0.000265 ± 0.00011 | – | –
G9C C16G | < 1e-05 | < 1e-05 | –
C68A U69G | 9.62e-05 ± 3.5e-05 | – | –
U49C A52G U65C | < 1e-05 | – | –
C10U G13A U45G U49C | < 1e-05 | – | –
G9U A36G A39U | < 1e-05 | < 1e-05 | –
G35C U49A G51U A53U | < 1e-05 | < 1e-05 | –
A42C U65G U69G | 0.000819 ± 0.00019 | 0.00302 ± 0.00061 | 0.00402 ± 0.001
U30C G44U | < 1e-05 | < 1e-05 | < 1e-05
U47A C61A C67G C71A | < 1e-05 | < 1e-05 | –
C8A A15G G44A C61U C71A | < 1e-05 | < 1e-05 | –
